Values of other authors in PMC4976356, “Structural insight into β-Clamp and its interaction with DNA Ligase in Helicobacter pylori” (Scientific Reports, 2016).

Test system: Ecβ-clamp

B1: ligase from E. coli: E. coli DNA ligase examined for interaction with Ecβ-clamp (ref 10) (protein, UniProt P15042 1-671, looked up)
DNA ligase: MESIEQQLTELRTTLRHHEYLYHVMDAPEIPDAEYDRLMRELRELETKHPELITPDSPTQRVGAAPLAAFSQIRHEVPMLSLDNVFDEESFLAFNKRVQDRLKNNEKVTWCCELKLDGLAVSILYENGVLVSAATRGDGTTGEDITSNVRTIRAIPLKLHGENIPARLEVRGEVFLPQAGFEKINEDARRTGGKVFANPRNAAAGSLRQLDPRITAKRPLTFFCYGVGVLEGGELPDTHLGRLLQFKKWGLPVSDRVTLCESAEEVLAFYHKVEEDRPTLGFDIDGVVIKVNSLAQQEQLGFVARAPRWAVAFKFPAQEQMTFVRDVEFQVGRTGAITPVARLEPVHVAGVLVSNATLHNADEIERLGLRIGDKVVIRRAGDVIPQVVNVVLSERPEDTREVVFPTHCPVCGSDVERVEGEAVARCTGGLICGAQRKESLKHFVSRRAMDVDGMGDKIIDQLVEKEYVHTPADLFKLTAGKLTGLERMGPKSAQNVVNALEKAKETTFARFLYALGIREVGEATAAGLAAYFGTLEALEAASIEELQKVPDVGIVVASHVHNFFAEESNRNVISELLAEGVHWPAPIVINAEEIDSPFAGKTVVLTGSLSQMSRDDAKARLVELGAKVAGSVSKKTDLVIAGEAAGSKLAKAQELGIEVIDEAEMLRLLGS
**Q.** Which “interaction with E. coli β-clamp (in words)” value does the source give for B1 here?
**A.** interacts with its β-clamp
